Molecular target: PaiB transcriptional regulator from Geobacillus stearothermophilus (Geobacillus stearothermophilus)
Test: crystal structure

Substance: PaiB transcriptional regulator from Geobacillus stearothermophilus (natural protein)
- stoichiometry N: 2

Reference: PMC3365582
